Here are results for nine molecules from patent US20240158497A1 (published 2024).

Broadly, the Kd is the equilibrium constant for the complex coming apart. Read a low Kd as tighter binding. For orientation: koff means a measure of how fast the partners let go of each other. In general, kon refers to the rate constant with which the complex forms. Lower therefore signals slow association. What is called t½ is the time in which the quantity being followed falls by half. Low readings indicate fast loss, high ones slow loss.

The target in test [1] is T1, Macaca fascicularis GP130 extracellular domain expressed with a C-terminal myc-myc-hexahistidine tag (Macaca fascicularis, UniProt P40189 23-619 (human entry)).
T1 construct: Monomeric reagent; also called mfGP130-mmH; mfGP130-MMH
T1 chain: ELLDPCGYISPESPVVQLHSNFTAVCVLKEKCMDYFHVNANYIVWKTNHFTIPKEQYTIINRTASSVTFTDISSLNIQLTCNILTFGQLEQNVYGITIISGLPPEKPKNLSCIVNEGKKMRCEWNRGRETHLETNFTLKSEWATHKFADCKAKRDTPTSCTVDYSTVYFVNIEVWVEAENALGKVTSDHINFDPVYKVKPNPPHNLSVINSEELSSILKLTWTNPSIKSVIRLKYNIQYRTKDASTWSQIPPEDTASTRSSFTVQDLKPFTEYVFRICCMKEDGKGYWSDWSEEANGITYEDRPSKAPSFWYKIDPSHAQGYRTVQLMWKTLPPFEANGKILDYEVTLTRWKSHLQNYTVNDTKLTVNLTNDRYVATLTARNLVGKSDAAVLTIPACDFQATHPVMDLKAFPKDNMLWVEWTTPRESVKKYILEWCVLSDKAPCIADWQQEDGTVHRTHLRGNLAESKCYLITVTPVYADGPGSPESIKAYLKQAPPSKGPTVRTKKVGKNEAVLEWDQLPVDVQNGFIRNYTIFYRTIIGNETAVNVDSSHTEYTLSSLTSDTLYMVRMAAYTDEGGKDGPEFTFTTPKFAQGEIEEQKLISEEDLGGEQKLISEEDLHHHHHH
The experiment in a line: SPR (Biacore 4000), mAb captured on anti-human Fc, 25 C. The method, then:
(§1) Equilibrium dissociation constant (KD) for different GP130 reagents binding to purified anti-GP130 monoclonal antibodies were determined using a real-time surface plasmon resonance based Biacore 4000 biosensor. All binding studies were performed in 10 mM HEPES, 150 mM NaCl, 3 mM EDTA, and 0.05% v/v Surfactant Tween-20, pH 7.4 (HBS-ET) running buffer at 25° C. and 37° C. The Biacore sensor surface was first derivatized by amine coupling with a monoclonal mouse anti-human Fc antibody (GE, #BR-1008-39) to capture anti-GP130 monoclonal antibodies. […] Reagents tagged with “mmH” are monomeric, whereas reagents tagged with “mFc” are dimeric. Thus, for example, “hGP130-mmH” is also referred to as “monomeric human GP130,” and “hGP130-mFc” is also referred to as “dimeric human GP130.”
(§2) The association rate (k a) and dissociation rate (kd) were determined by fitting the real-time binding sensorgrams to a 1:1 binding model with mass transport limitation using Scrubber 2.0c curve-fitting software. Binding dissociation equilibrium constant (KD) and dissociative half-life (t ½) were calculated from the kinetic rates as: […]
For orientation: SPR reads the build-up and loss of mass on a sensor chip optically.

Test [2] concerns the target T2, human GP130 extracellular domain expressed with a C-terminal myc-myc-hexahistidine tag (human, UniProt P40189 23-619).
T2 construct: Monomeric reagent; also called hGP130-mmH; hGP130-MMH
The experiment in a line: SPR (Biacore 4000), mAb captured on anti-human Fc, 37 C. The method, then:
as §1, §2

In test [3] the target is T1, Macaca fascicularis GP130 extracellular …. The test is described as above. As to the method: as §1, §2

B1: MAb16664 (antibody, V domains shown)
VH: QVQLVQSGTEVKKPGSSVKVSCKASGGTFSTYPINWVRQAPGQGLEWMGGIIPIFGTASYAQKFQGRVAITTDESTSTAYMELNSLRSEDTAVYYCARERPNWGSNDYWGQGTLVTVSS
VL: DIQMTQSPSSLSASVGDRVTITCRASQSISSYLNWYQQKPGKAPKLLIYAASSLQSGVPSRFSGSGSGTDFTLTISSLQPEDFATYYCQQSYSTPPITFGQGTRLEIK
With B1, in test [1], the “100 nM Ag Bound” value turned out to be 13 RU, binding was characterised by a dissociation constant (Kd) of 3.21 nM, the off-rate (koff) was 0.00175 s⁻¹ and the kon was 543000 M⁻¹ s⁻¹. In addition, in test [1], the t½ is 7 min. For the same molecule, in test [2], the “100 nM Ag Bound” value amounted to 16 RU, the Kd came out at 14.2 nM, the koff worked out at 0.00826 s⁻¹ and the kon is 580000 M⁻¹ s⁻¹. Also, the t½ in test [2] stood at 1.4 min. In test [3], the “100 nM Ag Bound” value was found to be 16 RU, the Kd stood at 11.6 nM, the dissociation rate constant (koff) was determined as 0.00788 s⁻¹ and the kon worked out at 680000 M⁻¹ s⁻¹. The molecule further showed a t½ in test [3] of 1.5 min.

B2: MAb16659 (antibody, V domains shown)
VH: QVQLVQSGPEVKKPGSSVKVSCKASGGTIDRNEITWVRQAPGQGLEWMGVIIPILGEAHYERKFQGRLTITMDESTSTAYMELSNLRSEDTAVYYCARERAARGYLDYWGQGTLVTVSS
VL: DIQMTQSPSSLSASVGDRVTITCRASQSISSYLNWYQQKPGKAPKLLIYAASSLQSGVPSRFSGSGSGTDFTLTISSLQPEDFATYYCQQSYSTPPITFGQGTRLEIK
Consider B2, for which, in test [1], the “100 nM Ag Bound” value was determined as 74 RU, the Kd was 0.812 nM, the koff was 0.00044 s⁻¹ and the kon came out at 542000 M⁻¹ s⁻¹. This molecule also yielded a t½ in test [1] of 26 min. Also, in test [2], the “100 nM Ag Bound” value is 82 RU; the affinity, expressed as Kd, was 1.84 nM; the koff was 0.00171 s⁻¹; the kon was found to be 928000 M⁻¹ s⁻¹. In addition, the t½ in test [2] was determined as 7 min. Moreover, in test [3], the “100 nM Ag Bound” value was 78 RU, binding was characterised by a dissociation constant (Kd) of 2.34 nM, the koff turned out to be 0.00174 s⁻¹ and the association rate constant (kon) was 747000 M⁻¹ s⁻¹. In test [3], this molecule displayed a t½ of 7 min.

B3: MAb16636 (antibody, V domains shown)
VH: QLQLQESGPGLVKPSETLSLICTVSGGSISSNNYYWGWIRQPPGKGLEWIGNLYGSGSTYYNPSLKSRVTISVDTSKNQFSLKLSFVTAADTAVYHCARWDTNGGAFDIWGQGTMVTVSS
VL: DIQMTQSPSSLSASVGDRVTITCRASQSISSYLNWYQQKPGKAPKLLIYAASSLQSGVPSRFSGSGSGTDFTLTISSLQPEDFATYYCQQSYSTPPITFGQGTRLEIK
As for B3, in test [1], the “100 nM Ag Bound” value came to 23 RU, the Kd came out at 107 nM, the koff is 0.00216 s⁻¹ and the kon came out at 20100 M⁻¹ s⁻¹. The same molecule came in with a t½ in test [1] of 5 min. In test [2], the “100 nM Ag Bound” value was 50 RU, the Kd is 71.6 nM, the koff was determined as 0.00441 s⁻¹ and the kon is 61600 M⁻¹ s⁻¹. The t½ in test [2] was 2.6 min. In test [3], the “100 nM Ag Bound” value was determined as 25 RU, the Kd was 239 nM, the dissociation rate constant (koff) worked out at 0.00945 s⁻¹ and the kon worked out at 39500 M⁻¹ s⁻¹. For the same molecule, the t½ in test [3] was 1.2 min.

B4: MAb16637 (antibody, V domains shown)
VH: QVQLVQSGAEVKKPGASVKVSCKASGYTFTSLGISWVRQAPGQGLEWMGWISAYSGNRDYAQKFQGRVTMTTDTSTSTAYMELRSLRSDDTAVYYCARSLRFDYWGQGTLVTVSS
VL: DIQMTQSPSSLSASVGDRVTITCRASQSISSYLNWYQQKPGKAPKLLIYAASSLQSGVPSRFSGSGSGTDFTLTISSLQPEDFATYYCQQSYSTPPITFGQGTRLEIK
For the molecule B4, in test [1], the “100 nM Ag Bound” value is 87 RU, the dissociation constant (Kd) turned out to be 15.9 nM, the koff was 0.00109 s⁻¹ and the kon is 68300 M⁻¹ s⁻¹. Moreover, in test [1], the t½ was determined as 11 min. In addition, in test [2], the “100 nM Ag Bound” value was 110 RU; the affinity, expressed as Kd, was 17.3 nM; the koff amounted to 0.00342 s⁻¹; the kon stood at 197000 M⁻¹ s⁻¹. Besides, the t½ in test [2] amounted to 3 min. Further, in test [3], the “100 nM Ag Bound” value is 104 RU, the equilibrium dissociation constant (Kd) was 14.8 nM, the off-rate (koff) stood at 0.00263 s⁻¹ and the kon was 178000 M⁻¹ s⁻¹. Besides, the t½ in test [3] came to 4 min.

B5: MAb16662 (antibody, V domains shown)
VH: EVQLVESGGGLVQPGGSLRLSCTASGFTFSNYAIFWVRQAPGKGLEYVSGISNNGVTKYYADSVRDRFTISRDNSRNTVSIQMDSLRTEDMAVYYCARENWGSDDGFDIWGQGTMVTVSS
VL: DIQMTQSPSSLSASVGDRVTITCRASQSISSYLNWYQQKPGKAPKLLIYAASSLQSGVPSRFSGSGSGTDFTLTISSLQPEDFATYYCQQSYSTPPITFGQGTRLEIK
Take B5: in test [1], the “100 nM Ag Bound” value is 15 RU, the Kd came to 184 nM, the koff came out at 0.038 s⁻¹ and the kon was determined as 207000 M⁻¹ s⁻¹. Also, the t½ in test [1] was 0.3 min. Further, in test [2], the “100 nM Ag Bound” value was determined as 17 RU, binding was characterised by a dissociation constant (Kd) of 134 nM, the koff came to 0.0585 s⁻¹ and the kon came to 436000 M⁻¹ s⁻¹. The t½ in test [2] is 0.2 min. In test [3], the “100 nM Ag Bound” value worked out at 14 RU, the Kd stood at 167 nM, the koff was found to be 0.0592 s⁻¹ and the kon is 355000 M⁻¹ s⁻¹. Further, the t½ in test [3] was 0.2 min.

B6: MAb16666 (antibody, V domains shown)
VH: EVQLVESGGGLVQSGGSLRLSCAASGFTFSRYEMNWVRQAPGKGLEWVAYISNTGTTRDYSDSVKGRFTISRDNAKNSLYLQMSSLRVEDTAVYYCVREKFSGTSDWFDPWGQGTLVTVSS
VL: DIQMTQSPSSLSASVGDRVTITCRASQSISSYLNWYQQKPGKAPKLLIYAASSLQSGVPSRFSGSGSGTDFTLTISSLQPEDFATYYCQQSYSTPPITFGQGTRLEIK
Take B6: in test [1], the “100 nM Ag Bound” value is 123 RU, the Kd is 18.3 nM, the koff was found to be 0.0053 s⁻¹ and the association rate constant (kon) worked out at 290000 M⁻¹ s⁻¹. The molecule further displayed a t½ in test [1] of 2.2 min. Moreover, in test [2], the “100 nM Ag Bound” value was 104 RU, binding was characterised by a dissociation constant (Kd) of 17.1 nM, the koff came to 0.0101 s⁻¹ and the kon stood at 588000 M⁻¹ s⁻¹. In addition, the t½ in test [2] is 1.1 min. In test [3], the “100 nM Ag Bound” value was 90 RU; the affinity, expressed as Kd, was 24.7 nM; the koff amounted to 0.0131 s⁻¹; the kon is 528000 M⁻¹ s⁻¹. The t½ in test [3] was found to be 0.9 min.

B7: MAb16656 (antibody, V domains shown)
VH: EVQLVESGGGLVQPGRSLRLSCAASGFTLDDFAMHWVRQAPGKGLEWVSGISWNSGNIGYADSVKGRFTISRDNARNSLYLQMNSLRAEDTALYYCTSGYYLYYAMDVWGQGTTVTVSS
VL: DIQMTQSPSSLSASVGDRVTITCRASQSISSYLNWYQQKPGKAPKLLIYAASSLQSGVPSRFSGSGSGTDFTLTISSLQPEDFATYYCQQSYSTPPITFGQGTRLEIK
As to B7, in test [1], the “100 nM Ag Bound” value was 42 RU, the Kd is 19 nM, the koff is 0.000846 s⁻¹ and the on-rate constant (kon) was determined as 44400 M⁻¹ s⁻¹. Further, the t½ in test [1] worked out at 14 min. Moreover, in test [2], the “100 nM Ag Bound” value is 50 RU, the Kd stood at 60.7 nM, the off-rate (koff) was determined as 0.00426 s⁻¹ and the kon is 70100 M⁻¹ s⁻¹. This molecule registered a t½ in test [2] of 2.7 min. For the same molecule, in test [3], the “100 nM Ag Bound” value was 47 RU, the Kd was 61.3 nM, the off-rate (koff) was found to be 0.00411 s⁻¹ and the kon was found to be 67000 M⁻¹ s⁻¹. In test [3], this molecule registered a t½ of 2.8 min.

B8: MAb16665 (antibody, V domains shown)
VH: QVQLVESGGGVVQPGRSLRLACAASGFTFRSYGMHWVRQAPGKGLEWVAVIWYDGSNKYYTDSVKGRFTISRDNSKNTLYLQMNSLRAEDTAMYYCAIDKWATVTTYLFDYWGQGTLVTVSS
VL: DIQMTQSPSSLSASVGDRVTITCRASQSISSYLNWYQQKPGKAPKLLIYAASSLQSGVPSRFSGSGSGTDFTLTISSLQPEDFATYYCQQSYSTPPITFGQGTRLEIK
For the molecule B8, in test [1], the “100 nM Ag Bound” value is 16 RU, the Kd came to 233 nM, the dissociation rate constant (koff) was 0.0505 s⁻¹ and the kon amounted to 217000 M⁻¹ s⁻¹. Also, the t½ in test [1] amounted to 0.2 min. In test [2], the “100 nM Ag Bound” value turned out to be 19 RU, the Kd stood at 164 nM, the koff came out at 0.0693 s⁻¹ and the kon was 423000 M⁻¹ s⁻¹. Besides, the t½ in test [2] turned out to be 0.2 min. For the same molecule, in test [3], the “100 nM Ag Bound” value amounted to 14 RU, the Kd worked out at 205 nM, the koff was 0.101 s⁻¹ and the kon worked out at 492000 M⁻¹ s⁻¹. In test [3], the t½ came out at 0.1 min.

B9: MAb16623 (antibody, V domains shown)
VH: EVQLVESGGGLVQPGGSLRLSCAASGLTFSSYEMNWVRQAPGKGLEWVSHISSAGSTKYYADSVKGRFTISRDNAKNSLFLQMNSLRAEDTAIYYCAGYNYAYYYFGVDVWGQGTTVTVSS
VL: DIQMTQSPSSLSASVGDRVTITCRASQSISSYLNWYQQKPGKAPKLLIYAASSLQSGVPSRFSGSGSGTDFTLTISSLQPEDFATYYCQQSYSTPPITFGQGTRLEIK
As for B9, in test [1], the “100 nM Ag Bound” value came to 74 RU, binding was put at a Kd of 25.5 nM, the koff is 0.00476 s⁻¹ and the kon is 187000 M⁻¹ s⁻¹. For the same molecule, in test [1], the t½ is 2.4 min. Further, in test [2], the “100 nM Ag Bound” value amounted to 68 RU, the Kd turned out to be 32.2 nM, the koff amounted to 0.0123 s⁻¹ and the kon came to 381000 M⁻¹ s⁻¹. In test [2], the t½ is 0.9 min. Besides, in test [3], the “100 nM Ag Bound” value is 60 RU, binding was characterised by a dissociation constant (Kd) of 44.3 nM, the koff stood at 0.0156 s⁻¹ and the kon was 352000 M⁻¹ s⁻¹. For the same molecule, in test [3], the t½ was 0.7 min.
